Measurements: patent publication US20240360238A1 (MAGENTA THERAPEUTICS, published 2024)

B1: HC-2/LC-2 (Ab2) (antibody, IgG1, V domains shown)
VH: QVQLVQSGAAVKKPGESLKISCKGSGYRFTTYWIGWVRQMPGKGLEWMGIIYPGDSDTRYSPSFQGQVTISAGKSISTAYLQWSSLKASDTAMYYCARHGRGYNGYEGAFDIWGQGTMVTVSS
VL: DIQLTQSPSSLSASVGDRVTITCRASQGIRTDLGWYQQKPGKAPKLLIYDASSLESGVPSRFSGSGSGTDFTLTISSLQPEDFATYYCQQFNSYPLTFGGGTKVEIK
notes: Purified IgG; also called 002
B2: HC-7/LC-7 (Ab7) (antibody, IgG1, V domains shown)
VH: QVQLVQSGAAVKKPGESLKISCKGSGYRFTTYWIGWVRQMPGKGLEWMGIIYPGDSDTRYSPSFQGQVTISAGKSISTAYLQWSSLKASDTAMYYCARHGRGYNGYEGAFDIWGQGTMVTVSS
VL: DIAMTQSPPSLSAFVGDRVTITCRASQGIISSLAWYQQKPGKAPKLLIYDASSLESGVPSRFSGSGSGTDFTLTIRSLQPEDFATYYCQQFNSYPLTFGGGTKLEIK
notes: Purified IgG; also called 007
B3: HC-12/LC-12 (Ab12) (antibody, IgG1, V domains shown)
VH: QVQLVQSGAAVKKPGESLKISCKGSGYRFTTYWIGWVRQMPGKGLEWMGIIYPGDSDTRYSPSFQGQVTISAGKSISTAYLQWSSLKASDTAMYYCARHGRGYNGYEGAFDIWGQGTMVTVSS
VL: DIQLTQSPSSLSASVGDRVTITCRASQGVRSTLAWYQQKPGKAPKLLIYDASILESGVPSRFSGSGSGTDFTLTISSLQPEDFATYYCQQFNGYPLTFGQGTRLEIK
notes: Purified IgG; also called 012
B4: HC-4/LC-4 (Ab4) (antibody, IgG1, V domains shown)
VH: QVQLVQSGAAVKKPGESLKISCKGSGYRFTTYWIGWVRQMPGKGLEWMGIIYPGDSDTRYSPSFQGQVTISAGKSISTAYLQWSSLKASDTAMYYCARHGRGYNGYEGAFDIWGQGTMVTVSS
VL: AIQMTQSPSSLSASVGDRVTITCRASQGIRNDLGWYQQKPGKAPKLLIYDASSLESGVPSRFSGSGSGTDFTLTISSLQPEDFATYYCQQFNSYPLTFGGGTKVDIK
notes: Purified IgG; also called 004
B5: HC-13/LC-13 (Ab13) (antibody, IgG1, V domains shown)
VH: QVQLVQSGAAVKKPGESLKISCKGSGYRFTTYWIGWVRQMPGKGLEWMGIIYPGDSDTRYSPSFQGQVTISAGKSISTAYLQWSSLKASDTAMYYCARHGRGYNGYEGAFDIWGQGTMVTVSS
VL: DIVMTQSPSSLSASVGDRVTITCRASQGIRNDLGWYQQKPGKAPKLLIYDASSLESGVPSRFSGSGSGTDFTLTISSLQPEDFATYYCQQFNSYPLTFGGGTKLEIK
notes: Purified IgG; also called 013
B6: HC-3/LC-3 (Ab3) (antibody, IgG1, V domains shown)
VH: QVQLVQSGAAVKKPGESLKISCKGSGYRFTTYWIGWVRQMPGKGLEWMGIIYPGDSDTRYSPSFQGQVTISAGKSISTAYLQWSSLKASDTAMYYCARHGRGYNGYEGAFDIWGQGTMVTVSS
VL: AIRMTQSPSSLSASVGDRVTITCRASQGIRNDLAWYQQKPGKTPKLLIYDASSLESGVPSRFSGSGSGTDFTLTISSLQPEDFATYYCQQFNSYPLTFGGGTKVEIK
notes: Purified IgG; also called 003
B7: HC-8/LC-8 (Ab8) (antibody, IgG1, V domains shown)
VH: QVQLVQSGAAVKKPGESLKISCKGSGYRFTTYWIGWVRQMPGKGLEWMGIIYPGDSDTRYSPSFQGQVTISAGKSISTAYLQWSSLKASDTAMYYCARHGRGYNGYEGAFDIWGQGTMVTVSS
VL: DIQMTQSPSSLSASVGDRVTITCRASQGISSALAWYQQKAGKAPKVLISDASSLESGVPSRFSGSGSGTDFTLSISSLQPEDFATYYCQQFNGYPLTFGGGTKVDIK
notes: Purified IgG; also called 008
B8: HC-5/LC-5 (Ab5) (antibody, IgG1, V domains shown)
VH: QVQLVQSGAAVKKPGESLKISCKGSGYRFTTYWIGWVRQMPGKGLEWMGIIYPGDSDTRYSPSFQGQVTISAGKSISTAYLQWSSLKASDTAMYYCARHGRGYNGYEGAFDIWGQGTMVTVSS
VL: NIQMTQSPSSLSASVGDRVTITCRASQAISDYLAWFQQKPGKAPKLLIYDASNLETGVPSRFSGSGSGTDFTLTISSLQPEDFATYYCQQLNSYPLTFGGGTKVEIK
notes: Purified IgG; also called 005

What follows are binders tested against T1, purified human CD117 ectodomain (R&D Systems #332-SR) (human, UniProt P10721 26-524) (assay: BLI, purified IgG on sensor, soluble ectodomain; apparent monovalent).
T1 construct: extracellular domain; Bought protein; also called c-kit; purified recombinant human CD117 ectodomain
T1 sequence (P10721 26-524): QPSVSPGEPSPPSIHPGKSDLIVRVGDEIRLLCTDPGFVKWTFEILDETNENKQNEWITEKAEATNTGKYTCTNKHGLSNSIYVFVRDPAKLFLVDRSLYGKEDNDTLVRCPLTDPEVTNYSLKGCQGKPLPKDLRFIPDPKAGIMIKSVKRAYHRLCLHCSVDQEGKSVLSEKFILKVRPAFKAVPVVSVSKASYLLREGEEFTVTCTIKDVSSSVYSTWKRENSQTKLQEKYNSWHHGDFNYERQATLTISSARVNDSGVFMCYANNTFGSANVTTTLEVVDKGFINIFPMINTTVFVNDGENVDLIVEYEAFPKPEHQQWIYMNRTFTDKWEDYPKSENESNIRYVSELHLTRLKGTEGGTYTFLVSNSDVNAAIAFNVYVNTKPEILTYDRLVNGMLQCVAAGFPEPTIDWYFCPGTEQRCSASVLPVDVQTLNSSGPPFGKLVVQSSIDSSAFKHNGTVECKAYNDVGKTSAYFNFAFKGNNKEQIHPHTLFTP
B1 gave a Kd of 0.729 nM, a koff of 0.00027 s⁻¹ and a kon of 370000 M⁻¹ s⁻¹. Work on B2 yielded a Kd of 0.99 nM, a koff of 0.000272 s⁻¹ and a kon of 275000 M⁻¹ s⁻¹. B3 showed a Kd of 0.911 nM, a koff of 0.000268 s⁻¹ and a kon of 294000 M⁻¹ s⁻¹. B4 gave a Kd of 1.18 nM, a koff of 0.000405 s⁻¹ and a kon of 345000 M⁻¹ s⁻¹. In the case of B5, the Kd is reported as 1.55 nM, the koff is reported as 0.000488 s⁻¹ and the kon is reported as 314000 M⁻¹ s⁻¹. Binder B6 has a Kd of 1.02 nM, a koff of 0.000352 s⁻¹ and a kon of 346000 M⁻¹ s⁻¹. Work on B7 yielded a Kd of 0.908 nM, a koff of 0.000264 s⁻¹ and a kon of 290000 M⁻¹ s⁻¹. B8 was tested, and the Kd was 1.21 nM, the koff was 0.000461 s⁻¹ and the kon was 380000 M⁻¹ s⁻¹.
